What all share (assay): enzyme inhibition assay
Assay [1] concerns the target T1, human MMP-9 catalytic domain (MMP-9CAT), residues 107-215, 391-443 (human, UniProt P14780 107-215; P14780 391-443).
T1 chain (looked up): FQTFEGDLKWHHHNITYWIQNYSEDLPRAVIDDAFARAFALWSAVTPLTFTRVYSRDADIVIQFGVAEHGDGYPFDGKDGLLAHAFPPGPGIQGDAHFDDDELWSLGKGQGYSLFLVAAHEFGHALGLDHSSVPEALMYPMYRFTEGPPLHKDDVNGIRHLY

The target in assay [2] is T2, MMP-1 catalytic domain (MMP-1CAT) (UniProt P03956 100-269).
T2 sequence (looked up): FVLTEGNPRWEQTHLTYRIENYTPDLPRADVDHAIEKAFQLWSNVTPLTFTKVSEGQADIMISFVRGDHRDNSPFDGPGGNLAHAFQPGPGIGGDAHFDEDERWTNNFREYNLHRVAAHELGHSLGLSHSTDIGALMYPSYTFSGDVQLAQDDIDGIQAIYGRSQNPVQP

The target of assay [3] is MMP-10 catalytic domain (MMP-10CAT) (UniProt P09238 99-263).
Sequence of MMP-10 catalytic domain (MMP-10CAT) (P09238 99-263): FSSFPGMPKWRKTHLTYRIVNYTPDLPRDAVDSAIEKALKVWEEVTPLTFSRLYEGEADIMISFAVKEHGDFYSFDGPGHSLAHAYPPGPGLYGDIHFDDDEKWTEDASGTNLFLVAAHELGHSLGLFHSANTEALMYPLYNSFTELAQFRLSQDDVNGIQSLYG
The target in assay [4] is MMP-14 catalytic domain (MMP-14CAT) (UniProt P50281 114-287).

B1: N-terminal domain of TIMP-2 (N-TIMP2), wild type (domain or fragment, UniProt P16035 27-152, looked up)
chain: CSCSPVHPQQAFCNADVVIRAKAVSEKEVDSGNDIYGNPIKRIQYEIKQIKMFKGPEKDIEFIYTAPSSAVCGVSLDVGGKKEYLIAGKAEGDGKMHITLCDFIVPWDTLSTTQKKSLNHRYQMGC
For orientation: Ki means the equilibrium dissociation constant of an inhibitor or competing ligand from its target. The low end stands for a stronger hold on the target, the high end for a looser hold on the target. For the molecule B1, the Ki in assay [1] was 0.12 nM; in assay [2] it was 0.25 nM; in assay [3], 4.3 nM; in assay [4], 2.52 nM.

The record behind these values is PMC5903968 (FEBS letters, 2018).
